Tests used:
GST-mLysRS = GST-mLysRS (Mus musculus, UniProt Q99MN1 1-595); experiment: streptavidin pull-down
GST-LysRS (human) = GST-LysRS (human) (Homo sapiens, UniProt Q15046 1-597); experiment: streptavidin pull-down, WB quantification
GST-cGAS (human) = GST-cGAS (human) (Homo sapiens, UniProt Q8N884 1-522); experiment: streptavidin pull-down, WB quantification
GST-cGAS (human), sequence (Q8N884 whole entry): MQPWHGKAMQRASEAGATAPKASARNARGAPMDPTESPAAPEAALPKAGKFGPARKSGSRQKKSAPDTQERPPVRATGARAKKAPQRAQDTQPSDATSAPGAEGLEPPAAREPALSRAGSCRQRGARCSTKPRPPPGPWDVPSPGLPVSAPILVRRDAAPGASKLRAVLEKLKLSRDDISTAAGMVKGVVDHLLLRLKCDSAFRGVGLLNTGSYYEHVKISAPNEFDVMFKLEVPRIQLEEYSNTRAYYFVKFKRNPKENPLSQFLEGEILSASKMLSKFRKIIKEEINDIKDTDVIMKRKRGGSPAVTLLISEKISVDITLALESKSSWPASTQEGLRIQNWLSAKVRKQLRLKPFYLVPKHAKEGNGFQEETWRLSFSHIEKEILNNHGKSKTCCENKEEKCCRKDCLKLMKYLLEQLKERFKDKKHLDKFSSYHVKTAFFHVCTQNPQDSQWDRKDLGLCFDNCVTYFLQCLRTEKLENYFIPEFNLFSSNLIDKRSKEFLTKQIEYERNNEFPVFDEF

GST-mLysRS, sequence (Q99MN1 whole entry): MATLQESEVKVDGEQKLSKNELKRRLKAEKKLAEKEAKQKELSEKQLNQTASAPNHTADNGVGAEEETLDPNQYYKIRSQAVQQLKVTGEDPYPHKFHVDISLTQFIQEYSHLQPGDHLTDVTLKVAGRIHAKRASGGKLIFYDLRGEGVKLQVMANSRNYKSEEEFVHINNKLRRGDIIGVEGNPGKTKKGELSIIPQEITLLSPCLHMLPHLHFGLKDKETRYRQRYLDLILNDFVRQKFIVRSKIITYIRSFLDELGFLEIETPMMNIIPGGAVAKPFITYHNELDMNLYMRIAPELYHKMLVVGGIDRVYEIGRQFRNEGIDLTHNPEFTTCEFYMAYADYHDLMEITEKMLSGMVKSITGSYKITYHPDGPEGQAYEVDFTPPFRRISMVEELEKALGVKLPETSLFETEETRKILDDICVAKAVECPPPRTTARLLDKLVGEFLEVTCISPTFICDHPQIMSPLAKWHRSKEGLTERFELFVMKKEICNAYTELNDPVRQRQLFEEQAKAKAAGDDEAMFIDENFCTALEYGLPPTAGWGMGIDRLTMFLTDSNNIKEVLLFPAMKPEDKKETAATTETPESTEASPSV
GST-LysRS (human), sequence (Q15046 whole entry): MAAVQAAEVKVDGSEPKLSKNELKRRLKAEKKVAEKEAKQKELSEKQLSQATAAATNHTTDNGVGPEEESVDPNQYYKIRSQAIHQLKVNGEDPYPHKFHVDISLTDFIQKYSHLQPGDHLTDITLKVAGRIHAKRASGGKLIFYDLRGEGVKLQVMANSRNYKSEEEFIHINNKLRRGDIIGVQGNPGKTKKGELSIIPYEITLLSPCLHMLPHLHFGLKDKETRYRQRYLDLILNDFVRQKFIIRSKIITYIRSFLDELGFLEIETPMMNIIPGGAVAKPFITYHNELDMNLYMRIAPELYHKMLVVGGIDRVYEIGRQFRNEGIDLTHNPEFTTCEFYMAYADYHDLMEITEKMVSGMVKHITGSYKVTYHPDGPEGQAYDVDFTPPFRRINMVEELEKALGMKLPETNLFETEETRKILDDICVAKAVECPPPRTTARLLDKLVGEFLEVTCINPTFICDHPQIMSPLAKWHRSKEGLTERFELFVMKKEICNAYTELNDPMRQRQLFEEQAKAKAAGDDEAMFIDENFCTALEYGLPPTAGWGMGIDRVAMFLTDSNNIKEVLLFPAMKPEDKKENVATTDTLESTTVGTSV

B1: BRNA:DNA hybrid (BRNA 2/DNA 9) (DNA:RNA)
RNA: UUUCAAUUCCUUUUAGGAUUAAUCUUGAAGAUAGAGUUAA
DNA: TTAACTCTATCTTCAAGATTAATCCTAAAAGGAATTGAAA
binding result (GST-mLysRS): binds | Kd (GST-LysRS (human)): ~11.3 nM | Kd (GST-cGAS (human)): ~8.05 nM
